# Data published in US11982671B2, “Identification of a T cell epitope of Prevotella copri that induces T cell responses in patients with rheumatoid arthritis” (priority 2016, dated 2024).
# B1: Pc-p27: full length 27-kD protein of P. copri, recombinant (GenScript) (protein, listed as Prevotella copri)
# chain: MKRIILILTVLLAMLGQVAYAQKTCVIASAENHVPIREALIHTNNNHWARTDYRGYWTMRYQFDSATVSKPGFMKATIRYKELPDTLFLLPDAKQLGEVTVWGKNQEGIKNMEEDIQEKINSLPTSSTGIGFDAFGWMDKQGKRDKKHLQQAKKVFEKMEHKDPVVAAYEKATGKKYELTNPYDVSAFKKDPPSEMATEEKKATSDAESKSKKKENPEKYAQE
# Tested on: serum IgG and IgA antibodies
# Assay: ELISA for serum IgG and IgA antibodies to the P. copri protein (Pc-p27)
# Type: binding, human
# Procedure: ELISA for serum IgG and IgA antibodies to the P. copri protein (Pc-p27). ELISA plates were coated with 0.25 μg/ml of the P. copri protein Pc-p27 (GenScript USA Inc, Piscataway, N.J.) overnight at 4° C. Subsequent incubations and washes were performed at room temperature. After washing with phosphate buffered saline with 0.05% Tween-20 (PBST), the plates were incubated with blocking buffer (5% nonfat dry milk in PBST) for one hour. Afterwards, 100 μl of each patient's serum sample (diluted 200-fold) was added in duplicate wells for 1.5 hours, followed by horseradish-peroxidase (HRP)-conjugated goat anti-human IgG (sc-2453, Santa Cruz Biotech) or HRP-conjugated goat anti-human IgA (Bio-Rad, Hercules, Calif.) and then TMB substrate (BD, San Diego, Calif.). For inter-plate standardization, 2 control samples were included on each plate.
molecule,measurement,setting,value
B1,patients with positive IgG antibody responses,49 CRA patients,20%
same,patients with IgG antibody responses >3 SD above HC,"78 NORA patients, serum diluted 200-fold",13%
same,patients with IgG or IgA antibody responses,127 RA patients,24%
same,patients with IgA antibody responses,both the NORA and CRA groups,About 10%
